{"source": "patent US20250084172A1", "about": "(23ANDME, published 2025)", "binders": {"B1": {"name": "human ULBP6 displayed on M13 phage (ULBP6-HA-pIII) (other)", "chain": "RRDDPHSLCYDITVIPKFRPGPRWCAVQGQVDEKTFLHYDCGNKTVTPVSPLGKKLNVTMAWKAQNPVLREVVDILTEQLLDIQLENYTPKEPLTLQARMSCEQKAEGHSSGSWQFSIDGQTFLLFDSEKRMWTTVHPGARKMKEKWENDKDVAMSFHYISMGDCIGWLEDFLMGMDSTLEPSAGAPLAMSSGYPYDVPDYA", "notes": "also called ULBP6 phage; not shown: M13 minor coat protein pIII"}}, "key": {"[1]": {"biological_target": "T1, cell surface ULBP6_01 on COV644 cells (human, UniProt Q5VY80 27-218)", "T1 construct": "whole, on cells; also called cell surface ULBP6 (COV644)", "T1 chain": "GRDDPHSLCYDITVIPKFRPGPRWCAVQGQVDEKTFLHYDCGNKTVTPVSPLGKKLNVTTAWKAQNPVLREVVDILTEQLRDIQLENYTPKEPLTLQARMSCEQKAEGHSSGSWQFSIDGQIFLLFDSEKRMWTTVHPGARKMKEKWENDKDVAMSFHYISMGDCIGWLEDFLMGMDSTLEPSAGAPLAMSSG", "assay": "flow cytometry on COV644 cells, anti-hFc-APC detection, average of 2 replicates"}, "[2]": {"biological_target": "T2, cell surface ULBP6_02 on PANC02.13 cells (human, UniProt Q5VY80 26-218)", "T2 construct": "whole, on cells; also called cell surface ULBP6 (PANC02.13)", "T2 chain": "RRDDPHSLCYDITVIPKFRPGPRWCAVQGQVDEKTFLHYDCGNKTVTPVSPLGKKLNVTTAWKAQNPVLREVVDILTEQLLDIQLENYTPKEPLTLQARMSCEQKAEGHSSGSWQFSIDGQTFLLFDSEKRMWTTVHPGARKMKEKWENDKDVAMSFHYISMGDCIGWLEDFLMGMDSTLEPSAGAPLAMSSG", "assay": "flow cytometry on PANC02.13 cells, anti-hFc-APC detection, average of 2 replicates"}, "[3]": {"biological_target": "T3, human soluble ULBP6 haplotype 02 (hULBP6_02) (human, UniProt Q5VY80 26-218)", "T3 construct": "also called sULBP6_02", "T3 chain": "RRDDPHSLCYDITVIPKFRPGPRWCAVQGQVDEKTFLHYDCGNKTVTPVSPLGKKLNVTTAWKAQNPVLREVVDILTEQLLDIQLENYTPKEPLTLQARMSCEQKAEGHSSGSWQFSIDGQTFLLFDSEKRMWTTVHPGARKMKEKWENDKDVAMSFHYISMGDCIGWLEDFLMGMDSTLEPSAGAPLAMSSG", "assay": "SPR (BIACORE 8K, 37 C); antibody captured on Protein A, soluble ULBP injected;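 note: ligand injected as threefold dilution series in HBS-P (highest 10 or 50 nM), reference-cell and buffer-subtracted sensorgrams fitted with a 1:1 Langmuir model for on and off rates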"}, "[4]": {"biological_target": "T4, human soluble ULBP2 (hULBP2) (human, UniProt Q9BZM5 26-216)", "T4 construct": "also called sULBP2", "T4 sequence": "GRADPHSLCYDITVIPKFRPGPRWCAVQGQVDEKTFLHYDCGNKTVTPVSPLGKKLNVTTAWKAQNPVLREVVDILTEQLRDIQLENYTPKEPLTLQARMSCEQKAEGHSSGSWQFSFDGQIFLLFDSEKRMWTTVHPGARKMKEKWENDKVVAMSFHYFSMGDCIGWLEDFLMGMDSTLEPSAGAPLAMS", "assay": "SPR (BIACORE 8K, 37 C); antibody captured on Protein A, soluble ULBP injected"}, "[5]": {"biological_target": "T5, cynomolgus soluble ULBP5 (cULBP5) (cynomolgus)", "T5 construct": "also called Cyno-cULBP5", "T5 chain": "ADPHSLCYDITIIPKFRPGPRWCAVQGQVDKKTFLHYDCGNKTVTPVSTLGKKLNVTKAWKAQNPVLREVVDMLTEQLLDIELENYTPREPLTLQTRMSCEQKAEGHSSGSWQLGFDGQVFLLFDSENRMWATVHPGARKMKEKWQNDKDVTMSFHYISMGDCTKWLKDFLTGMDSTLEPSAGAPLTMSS", "assay": "SPR (BIACORE 8K, 37 C); antibody captured on Protein A, soluble ULBP injected"}, "[6]": {"biological_target": "T6, human soluble ULBP6 haplotype 01 (hULBP6_01) (human, UniProt Q5VY80 27-218, limits assumed)", "T6 construct": "also called sULBP6_01", "T6 chain": "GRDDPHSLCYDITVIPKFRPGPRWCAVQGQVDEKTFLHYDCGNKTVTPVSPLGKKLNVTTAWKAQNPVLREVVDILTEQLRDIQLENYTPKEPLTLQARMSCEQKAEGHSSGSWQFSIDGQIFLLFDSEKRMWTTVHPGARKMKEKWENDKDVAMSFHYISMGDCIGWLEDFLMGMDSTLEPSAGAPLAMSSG", "assay": "SPR (BIACORE 8K, 37 C); antibody captured on Protein A, soluble ULBP injected"}, "[7]": {"biological_target": "T7, cynomolgus soluble ULBP2/6 (cULBP2/6) (cynomolgus, UniProt Q5VY80 28-217 (human entry), limits assumed)", "T7 construct": "also called cyno ULBP6; Cyno-cULBP2/6", "T7 chain": "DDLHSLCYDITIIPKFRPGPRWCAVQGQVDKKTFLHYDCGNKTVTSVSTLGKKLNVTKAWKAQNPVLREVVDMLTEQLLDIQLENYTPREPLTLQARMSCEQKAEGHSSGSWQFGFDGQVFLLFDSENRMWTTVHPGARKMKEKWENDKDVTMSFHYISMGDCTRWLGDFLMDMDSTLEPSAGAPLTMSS", "assay": "SPR (BIACORE 8K, 37 C); antibody captured on Protein A, soluble ULBP injected"}, "[8]": {"biological_target": "T1, cell surface ULBP6_01 on COV644 cells", "assay": "flow cytometry; blocking of hNKG2D-mFc binding to COV644 cells, average of 2 replicates"}, "[9]": {"biological_target": "T3, human soluble ULBP6 haplotype 02 …", "assay": "cell-based or functional assay"}, "[10]": {"biological_target": "B1", "assay": "phage ELISA: plate coated with the antibody, ULBP6 phage titrated in 3-fold steps from 1.0 O.D./mL, HRP anti-M13 detection, O.D. 450"}, "[11]": {"biological_target": "T3, human soluble ULBP6 haplotype 02 …", "assay": "cell-based or functional assay"}, "[12]": {"biological_target": "T3, human soluble ULBP6 haplotype 02 …", "assay": "Biacore binding to ULBP6_02 (SPR)"}, "anti-HA antibody": {"biological_target": "anti-HA antibody", "assay": "phage ELISA: plate coated with anti-HA antibody, phage titrated in 3-fold steps from 1.0 O.D./mL, HRP anti-M13 detection, O.D. 450"}, "[13]": {"biological_target": "hNKG2D-Fc (human NKG2D 78-216 with C-terminal long huFc-Flag tag) (human)", "sequence (chain, as listed by the source limits assumed)": "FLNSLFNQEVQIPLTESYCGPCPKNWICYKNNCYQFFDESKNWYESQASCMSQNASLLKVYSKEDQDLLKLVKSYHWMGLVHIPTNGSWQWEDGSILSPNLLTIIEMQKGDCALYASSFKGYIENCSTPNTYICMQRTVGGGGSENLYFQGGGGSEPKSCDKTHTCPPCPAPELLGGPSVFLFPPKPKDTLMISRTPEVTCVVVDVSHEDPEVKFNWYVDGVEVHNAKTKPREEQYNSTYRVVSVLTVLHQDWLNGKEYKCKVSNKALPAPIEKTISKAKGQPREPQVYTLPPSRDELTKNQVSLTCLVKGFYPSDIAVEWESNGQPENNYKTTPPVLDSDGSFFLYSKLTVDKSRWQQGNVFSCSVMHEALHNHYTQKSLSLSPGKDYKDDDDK", "assay": "phage ELISA: plate coated with the ULBP6 receptor NKG2D (PUR4928, construct not stated), phage titrated in 3-fold steps from 1.0 O.D./mL, HRP anti-M13 detection, O.D. 450"}}, "data": [{"binder": "humanized 7B3 (h7B3), Fc version not stated (antibody, V domains shown, Recombinant humanized antibody, hIgG1 backbone with kappa light chain; also called hu7B3; PUR3922) VH: EVQLVESGGGLVQPGGSLRLSCAASGFTFSTYGFHWVRQAPGKGLEWVAYISSNSGTIDYADTVKGRFTISRDNAKNSLYLQMNSLRAEDTAVYYCARQGYGFDNWGQGTTVTVSS VL: DIQLTQSPSSLSASVGDRVTITCSASSRVSYMNWYQQKPGKSPKIWVYGISNLASGVPSRFSGSGSGTDFTFTISSLQPEDIATYYCQQRSSHPLTFGGGTKVEIK", "values": [{"measurement": "EC50", "setting": "[1]", "value": 1.93, "unit": "nM"}, {"measurement": "EC50", "setting": "[2]", "value": 1.97, "unit": "nM"}, {"measurement": "Kd", "setting": "[3]", "value": 0.255, "unit": "nM"}, {"measurement": "koff", "setting": "[3]", "value": 0.000379, "unit": "s⁻¹"}, {"measurement": "kon", "setting": "[3]", "value": "1.48e+06", "unit": "M⁻¹ s⁻¹"}, {"measurement": "Kd", "setting": "[4]", "value": 0.673, "unit": "nM"}, {"measurement": "koff", "setting": "[4]", "value": 0.000507, "unit": "s⁻¹"}, {"measurement": "kon", "setting": "[4]", "value": 753000, "unit": "M⁻¹ s⁻¹"}, {"measurement": "Kd", "setting": "[5]", "value": 6.13, "unit": "nM"}, {"measurement": "koff", "setting": "[5]", "value": 0.0034, "unit": "s⁻¹"}, {"measurement": "kon", "setting": "[5]", "value": 554000, "unit": "M⁻¹ s⁻¹"}, {"measurement": "Kd", "setting": "[6]", "value": 0.263, "unit": "nM"}, {"measurement": "koff", "setting": "[6]", "value": 0.000382, "unit": "s⁻¹"}, {"measurement": "kon", "setting": "[6]", "value": "1.45e+06", "unit": "M⁻¹ s⁻¹"}, {"measurement": "Kd", "setting": "[7]", "value": 0.377, "unit": "nM"}, {"measurement": "koff", "setting": "[7]", "value": 0.000542, "unit": "s⁻¹"}, {"measurement": "kon", "setting": "[7]", "value": "1.44e+06", "unit": "M⁻¹ s⁻¹"}, {"measurement": "IC50", "setting": "[8]", "value": 0.17, "unit": "nM"}, {"measurement": "EC50 (read off the curve); NKG2D MFI on primed PBMCs with 50 nM sULBP6_02", "setting": "[9]", "value": "~20", "unit": "nM"}, {"measurement": "EC50 (read off the curve)", "setting": "[10]", "value": "~0.006 O.D. (phage)"}, {"measurement": "EC50 (read off the curve); IFNg secretion of primed PBMCs on plate-bound MICA with 50 nM sULBP6_02", "setting": "[11]", "value": "~1", "unit": "nM"}]}, {"binder": "humanized 8E8 (h8E8), Fc version not stated (antibody, V domains shown, also called hu8E8; PUR3924) VH: QVQLVQSGAEVKKPGSSVKVSCKASGYTFTTYGITWVRQAPGQGLEWIGEIYPGTATSYSNERFKGRATLTADRSTSTAYMELSSLRSEDTAVYFCARRGTYGTYEWYFDVWGRGTLVTVSS VL: DIQMTQSPSSLSASVGDRVTITCRASENIYSHLAWYQQKPGKSPKLLVYAATNLADGVPSRFSGSGSGTDYTLTISSLQPEDFATYYCQHFWGTPWTFGGGTKVEIK", "values": [{"measurement": "Kd", "setting": "[12]", "value": 1.56, "unit": "nM"}, {"measurement": "IC50 (read off the curve); fall of NKG2D MFI on primed PBMCs with 50 nM sULBP6_02", "setting": "[9]", "value": "~3", "unit": "nM"}]}, {"binder": "B1", "values": [{"measurement": "EC50 (read off the curve)", "setting": "anti-HA antibody", "value": "~0.01 O.D. (phage)"}, {"measurement": "EC50 (read off the curve)", "setting": "[13]", "value": "~0.01 O.D. (phage)"}]}]}
